From paper PMC6361588, “Exploration of CTCF post-translation modifications uncovers Serine-224 phosphorylation by PLK1 at pericentric regions during the G2/M transition”

T1: FLAG-CTCF(S224A)-6xHis (UniProt Q61164 1-736, S224A)
T1 sequence: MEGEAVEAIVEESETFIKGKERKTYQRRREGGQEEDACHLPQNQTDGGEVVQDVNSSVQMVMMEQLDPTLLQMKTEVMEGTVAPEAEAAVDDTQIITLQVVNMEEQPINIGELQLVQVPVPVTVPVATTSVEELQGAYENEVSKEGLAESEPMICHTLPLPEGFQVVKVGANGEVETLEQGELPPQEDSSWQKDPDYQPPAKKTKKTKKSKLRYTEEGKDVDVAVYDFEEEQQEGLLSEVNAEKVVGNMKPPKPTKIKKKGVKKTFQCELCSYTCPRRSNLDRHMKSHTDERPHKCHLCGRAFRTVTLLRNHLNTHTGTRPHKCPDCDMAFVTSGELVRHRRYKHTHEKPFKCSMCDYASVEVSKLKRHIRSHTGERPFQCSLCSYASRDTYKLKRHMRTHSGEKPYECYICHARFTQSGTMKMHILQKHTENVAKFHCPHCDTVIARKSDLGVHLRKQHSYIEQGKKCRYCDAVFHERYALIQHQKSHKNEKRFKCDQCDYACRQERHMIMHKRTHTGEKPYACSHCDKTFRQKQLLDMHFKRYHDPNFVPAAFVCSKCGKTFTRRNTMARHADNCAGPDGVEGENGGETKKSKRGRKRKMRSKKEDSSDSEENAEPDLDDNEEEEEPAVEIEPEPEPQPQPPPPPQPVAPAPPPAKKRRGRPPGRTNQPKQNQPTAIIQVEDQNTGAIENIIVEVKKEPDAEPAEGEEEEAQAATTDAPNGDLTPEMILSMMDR

T2: FLAG-CTCF(S224E)-6xHis (UniProt Q61164 1-736, S224E)
T2 sequence: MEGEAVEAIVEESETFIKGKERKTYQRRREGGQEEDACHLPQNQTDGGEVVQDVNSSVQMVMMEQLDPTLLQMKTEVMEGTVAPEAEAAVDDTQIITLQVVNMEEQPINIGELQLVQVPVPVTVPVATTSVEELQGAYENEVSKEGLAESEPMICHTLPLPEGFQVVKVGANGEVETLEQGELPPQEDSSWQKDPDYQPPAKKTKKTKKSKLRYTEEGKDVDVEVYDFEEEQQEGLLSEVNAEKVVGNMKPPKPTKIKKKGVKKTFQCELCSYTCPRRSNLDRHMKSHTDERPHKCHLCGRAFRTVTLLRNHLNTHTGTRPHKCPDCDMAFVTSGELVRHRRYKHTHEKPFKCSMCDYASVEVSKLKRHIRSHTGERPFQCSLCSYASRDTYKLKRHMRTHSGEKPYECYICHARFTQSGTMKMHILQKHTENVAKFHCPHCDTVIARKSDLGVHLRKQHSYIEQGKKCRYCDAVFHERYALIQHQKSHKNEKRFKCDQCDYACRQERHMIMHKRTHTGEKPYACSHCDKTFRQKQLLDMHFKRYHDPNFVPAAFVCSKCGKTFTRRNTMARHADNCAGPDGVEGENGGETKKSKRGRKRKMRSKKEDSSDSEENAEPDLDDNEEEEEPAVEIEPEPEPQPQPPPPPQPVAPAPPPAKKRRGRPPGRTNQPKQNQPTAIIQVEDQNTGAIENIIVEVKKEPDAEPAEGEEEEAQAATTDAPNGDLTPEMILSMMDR


Legend:
[1] = molecular target: T1, FLAG-CTCF(S224A)-6xHis; experiment: EMSA; 0.5, 1 or 2 pmol protein; EMSA as in Sun et al., 2013; buffer, salt, pH and temperature not given in the material; details: protein: recombinant; tags: N-terminal FLAG, C-terminal 6xHis; blunt
[2] = molecular target: T2, FLAG-CTCF(S224E)-6xHis; experiment: as above; details: protein: recombinant; tags: N-terminal FLAG, C-terminal 6xHis; blunt

Row | Binder | binding result [1] | binding result [2]
1 | RS14C (dsDNA) DNA 1: CTATGCATTAGGTTTGGGTGTTATACCCGTGTAGGCCAGCAGAGGGTGTCGGATCCCAAGGAAACCAAGTTACAGACGCC DNA 2: GGCGTCTGTAACTTGGTTTCCTTGGGATCCGACACCCTCTGCTGGCCTACACGGGTATAACACCCAAACCTAATGCATAG | binds | binds
2 | RS14C mutant (dsDNA) DNA 1: CTATGCATTAGGTTTGGGTGTTATACCCGTGTAGGCTAGCACAGTGTGTCGGATCCCAAGGAAACCAAGTTACAGACGCC DNA 2: GGCGTCTGTAACTTGGTTTCCTTGGGATCCGACACACTGTGCTAGCCTACACGGGTATAACACCCAAACCTAATGCATAG | no binding | no binding
